Assay results as given in paper PMC4309261.

B1: EZH2 promoter GC-rich oligo, wild type (dsDNA)
DNA 1: ACTTGGCTTCCAGCACCCGCCCCGCCCCTCCCCCGCCCGGGAACTCTGCGGCGCCG
DNA 2: CGGCGCCGCAGAGTTCCCGGGCGGGGGAGGGGCGGGGCGGGTGCTGGAAGCCAAGT
B2: EZH2 promoter GC-rich oligo, mutant (dsDNA)
DNA 1: ACTTGGCTTCCAGCACCCGAAAAGCTTCTCCAACGTTCGGGAACTCTGCGGCGCCG
DNA 2: CGGCGCCGCAGAGTTCCCGAACGTTGGAGAAGCTTTTCGGGTGCTGGAAGCCAAGT

Target: Sp1 (UniProt P08047 2-785)
Experiment: EMSA

Sp1, sequence (P08047 2-785): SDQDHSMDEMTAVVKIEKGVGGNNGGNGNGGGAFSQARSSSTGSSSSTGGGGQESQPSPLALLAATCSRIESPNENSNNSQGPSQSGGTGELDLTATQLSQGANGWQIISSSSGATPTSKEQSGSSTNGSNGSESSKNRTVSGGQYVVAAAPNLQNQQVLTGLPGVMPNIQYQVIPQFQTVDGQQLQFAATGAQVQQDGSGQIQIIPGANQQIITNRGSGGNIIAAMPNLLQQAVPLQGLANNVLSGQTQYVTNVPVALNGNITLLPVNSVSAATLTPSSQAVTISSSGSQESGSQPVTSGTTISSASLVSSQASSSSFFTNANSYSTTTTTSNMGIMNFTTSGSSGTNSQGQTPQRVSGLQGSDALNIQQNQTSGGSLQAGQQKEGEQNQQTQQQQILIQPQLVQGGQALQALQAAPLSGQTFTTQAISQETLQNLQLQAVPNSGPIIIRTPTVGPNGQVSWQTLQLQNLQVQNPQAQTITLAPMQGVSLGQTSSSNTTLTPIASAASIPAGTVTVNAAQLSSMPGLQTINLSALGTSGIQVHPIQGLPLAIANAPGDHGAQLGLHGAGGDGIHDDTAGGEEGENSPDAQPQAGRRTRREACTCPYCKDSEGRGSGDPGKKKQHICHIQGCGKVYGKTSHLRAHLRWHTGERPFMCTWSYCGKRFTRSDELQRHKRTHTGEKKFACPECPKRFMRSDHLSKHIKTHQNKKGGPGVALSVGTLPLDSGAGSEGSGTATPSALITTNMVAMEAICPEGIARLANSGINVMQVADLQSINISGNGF

Binder	binding result
B1	binds
B2	no binding
